Results from patent US20190071490A1 (BETH ISRAEL DEACONESS MEDICAL CENTER, published 2019).

Assays:
human α-CGRP 1-37 (WT) = target: T1, human α-CGRP 1-37 (WT) (human, C-terminal amide; N-terminal biotin when captured on the SA chip; 125I-labelled in the radioligand assay); test: Biacore, 37°C, Fab over CGRP on SA chip
T1 construct: also called α-human
T1 peptide: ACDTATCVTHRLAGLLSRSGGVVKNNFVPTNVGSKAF
Procedure: (§1) Biacore assay for affinity determination. […] All Biacore assays were conducted in HBS-EP running buffer (10 mM HEPES pH 7.4, 150 mM NaCl, 3 mM EDTA, 0.005% v/v polysorbate P20). CGRP surfaces were prepared by diluting the N-biotinylated CGRP to a concentration of less than 0.001 mg/mL into HBS-EP buffer and injecting it across the SA sensor chip using variable contact times. […] Samples were typically injected for 1 minute at 100 μL/min and dissociation times of at least 10 minutes were allowed. […] An entire titration series (typically generated in duplicate) was fit globally to a 1:1 Langmuir binding model using the BIAevaluation program. This returned a unique pair of association and dissociation kinetic rate constants (respectively, kₒₙ and koff) for each binding interaction, whose ratio gave the equilibrium dissociation constant (KD=koff/kₒₙ). […]

rat α-CGRP (1-37) = target: T2, rat α-CGRP (1-37) (rat, C-terminal amide; N-terminal biotin when captured on the SA chip); test: Biacore, 37°C, Fab over CGRP on SA chip
T2 construct: also called rat α (1-37); α-rat
T2 peptide: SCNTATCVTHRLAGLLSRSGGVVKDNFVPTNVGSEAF
Procedure: as §1

koff (human α-CGRP 1-37 (WT)) [s⁻¹] | koff (rat α-CGRP (1-37)) [s⁻¹] | Kd (human α-CGRP 1-37 (WT)) [nM] | Kd (rat α-CGRP (1-37)) [nM] | Binder
0.000173 | 0.0011 | – | – | G1 variant M1 Fab (Fab, V domains shown, Fab; constant domains as m1) VH: EVQLVESGGGLVQPGGSLRLSCAASGFTFSNYWISWVRQAPGKGLEWVAEIRSESDASATHYAEAVKGRFTISRDNAKNSLYLQMNSLRAEDTAVYYCLLYFDYGLAIQNYWGQGTLVTVSS VL: EIVLTQSPATLSLSPGERATLSCKASKRVTTYVSWYQQKPGQAPRLLIYGASNRYLGIPARFSGSGSGTDFTLTISSLEPEDFAVYYCSQSYNYPYTFGQGTKLEIK
0.00031 | 0.0026 | 3 | 58 | G1 variant M2 Fab (Fab, V domains shown, Fab; constant domains as m1) VH: EVQLVESGGGLVQPGGSLRLSCAASGFTFSNYWISWVRQAPGKGLEWVAEIRSESDASATHYAEAVKGRFTISRDNAKNSLYLQMNSLRAEDTAVYYCARYFDYGLAIQNYWGQGTLVTVSS VL: EIVLTQSPATLSLSPGERATLSCKASKRVTTYVSWYQQKPGQAPRLLIYGASNRYLGIPARFSGSGSGTDFTLTISSLEPEDFAVYYCSQSYNYPYTFGQGTKLEIK
0.00021 | 0.002 | 1.7 | 61 | G1 variant M3 Fab (Fab, V domains shown, Fab; constant domains as m1) VH: EVQLVESGGGLVQPGGSLRLSCAASGFTFSNYWISWVRQAPGKGLEWVAEIRSESDASATHYAEAVKGRFTISRDNAKNSLYLQMNSLRAEDTAVYYCASYFDYGLAIQNYWGQGTLVTVSS VL: EIVLTQSPATLSLSPGERATLSCKASKRVTTYVSWYQQKPGQAPRLLIYGASNRYLGIPARFSGSGSGTDFTLTISSLEPEDFAVYYCSQSYNYPYTFGQGTKLEIK
6.95e-05 | 0.00152 | 0.43 | 84.4 | G1 variant M4 Fab (Fab, V domains shown, Fab; constant domains as m1) VH: EVQLVESGGGLVQPGGSLRLSCAASGFTFSNYWISWVRQAPGKGLEWVAEIRSESDASATHYAEAVKGRFTISRDNAKNSLYLQMNSLRAEDTAVYYCAVYFDYGLAIQNYWGQGTLVTVSS VL: EIVLTQSPATLSLSPGERATLSCKASKRVTTYVSWYQQKPGQAPRLLIYGASNRYLGIPARFSGSGSGTDFTLTISSLEPEDFAVYYCSQSYNYPYTFGQGTKLEIK
3.22e-05 | 0.000735 | 0.2 | 40.8 | G1 variant M5 Fab (Fab, V domains shown, Fab; constant domains as m1) VH: EVQLVESGGGLVQPGGSLRLSCAASGFTFSNYWISWVRQAPGKGLEWVAEIRSESDASATHYAEAVKGRFTISRDNAKNSLYLQMNSLRAEDTAVYYCAYYFDYGLAIQNYWGQGTLVTVSS VL: EIVLTQSPATLSLSPGERATLSCKASKRVTTYVSWYQQKPGQAPRLLIYGASNRYLGIPARFSGSGSGTDFTLTISSLEPEDFAVYYCSQSYNYPYTFGQGTKLEIK
≤ 1e-05 | – | ≤ 0.06 | – | G1 variant M9 Fab (Fab, V domains shown, Fab; constant domains as m1) VH: EVQLVESGGGLVQPGGSLRLSCAASGFTFSNYWISWVRQAPGKGLEWVAEIRSESDASATHYAEAVKGRFTISRDNAKNSLYLQMNSLRAEDTAVYYCNYYFDYGLAIQNYWGQGTLVTVSS VL: EIVLTQSPATLSLSPGERATLSCKASKRVTTYVSWYQQKPGQAPRLLIYGASNRYLGIPARFSGSGSGTDFTLTISSLEPEDFAVYYCSQSYNYPYTFGQGTKLEIK
≤ 1e-05 | – | ≤ 0.06 | – | G1 variant M14 Fab (Fab, V domains shown, Fab; constant domains as m1) VH: EVQLVESGGGLVQPGGSLRLSCAASGFTFSNYWISWVRQAPGKGLEWVAEIRSESDASATHYAEAVKGRFTISRDNAKNSLYLQMNSLRAEDTAVYYCTKYFDYGLAIQNYWGQGTLVTVSS VL: EIVLTQSPATLSLSPGERATLSCKASKRVTTYVSWYQQKPGQAPRLLIYGASNRYLGIPARFSGSGSGTDFTLTISSLEPEDFAVYYCSQSYNYPYTFGQGTKLEIK
≤ 1e-05 | – | ≤ 0.06 | – | G1 variant M19 Fab (Fab, V domains shown, Fab; constant domains as m1) VH: EVQLVESGGGLVQPGGSLRLSCAASGFTFSNYWISWVRQAPGKGLEWVAEIRSESDASATHYAEAVKGRFTISRDNAKNSLYLQMNSLRAEDTAVYYCVRYFDYGLAIQNYWGQGTLVTVSS VL: EIVLTQSPATLSLSPGERATLSCKASKRVTTYVSWYQQKPGQAPRLLIYGASNRYLGIPARFSGSGSGTDFTLTISSLEPEDFAVYYCSQSYNYPYTFGQGTKLEIK
